The values that follow come from patent US20220119534A1 (DRAGONFLY THERAPEUTICS, published 2022).

Changes are numbered by the printed parent chain. Numbers in names are those of the source. Where “and” joins values, the source holds several entries; their conditions need not be identical. Identical values can stand only once.

For experiment [1], the target named is T1, Human CLEC12A-His (human, UniProt Q5QGZ9 65-265).
T1 construct: Recombinant soluble protein made in house (Dragonfly Tx); The hCLEC12A spot of the HuProt array is written under this molecule as well; also called hCLEC12A-His; hCLEC12A; not shown: His tag
T1 sequence: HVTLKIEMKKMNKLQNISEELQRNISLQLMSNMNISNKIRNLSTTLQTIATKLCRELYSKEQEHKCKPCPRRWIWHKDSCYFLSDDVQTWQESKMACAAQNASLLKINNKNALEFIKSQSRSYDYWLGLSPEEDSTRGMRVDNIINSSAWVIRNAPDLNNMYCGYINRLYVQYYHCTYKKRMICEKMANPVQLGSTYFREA
Nature of the experiment: SPR Biacore 8K 37 C; TriNKET captured on anti-hFc chip, hCLEC12A-His as analyte; 1:1 fit; pH 5.0 control, n=2.

Experiment [2] deals with T1, Human CLEC12A-His. Nature of the experiment: SPR Biacore 8K 37 C; TriNKET captured on anti-hFc chip, hCLEC12A-His as analyte; 1:1 fit; pH 8.0 control, n=2.
For experiment [3], the target named is T2, mFc-hNKG2D (human, UniProt P26718 73-216).
T2 construct: extracellular domain; Made in house (Dragonfly Tx); the order of tag and ECD follows the name mFc-hNKG2D; also called mFc-tagged human NKG2D; not shown: mouse Fc tag
T2 sequence (looked up): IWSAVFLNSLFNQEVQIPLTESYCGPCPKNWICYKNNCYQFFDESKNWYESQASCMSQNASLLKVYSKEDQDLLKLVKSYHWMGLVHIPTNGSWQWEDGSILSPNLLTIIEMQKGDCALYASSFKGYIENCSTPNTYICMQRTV
Nature of the experiment: SPR Biacore 8K 37 C; mFc-hNKG2D captured on anti-mFc chip, TriNKET as analyte; 1:1 kinetic fit; after low pH hold, n=3. For orientation: SPR reads the build-up and loss of mass on a sensor chip optically.

For experiment [4], the target named is T3, Human CD16a V158 (FcγRIIIa V158) (human, UniProt P08637 17-208, biotinylated (site not stated)).
T3 construct: V158 is the allele name in mature numbering; also called hCD16aV; hCD16a V158
T3 sequence (P08637 17-208 F176V limits assumed): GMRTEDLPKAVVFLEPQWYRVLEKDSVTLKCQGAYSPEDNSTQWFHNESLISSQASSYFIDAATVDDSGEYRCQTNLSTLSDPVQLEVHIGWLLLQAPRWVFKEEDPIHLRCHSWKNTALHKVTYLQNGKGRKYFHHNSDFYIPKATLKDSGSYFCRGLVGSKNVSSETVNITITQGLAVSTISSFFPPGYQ
Nature of the experiment: SPR; biotinylated CD16a V158 captured on SA chip, TriNKET as analyte; 1:1 kinetic fit; control sample, n=3.

Experiment [5] deals with T4, Human CLEC12A-His (recombinant, K244 WT) (human, UniProt Q5QGZ9 65-265).
T4 construct: Made in house (Dragonfly Tx); also called hCLEC12A; hCLEC12A-His; not shown: His tag
T4 sequence: T1 sequence
Nature of the experiment: SPR, two-state fit (kd1); after pH 5.0, 40C, 2 wks.

Experiment [6] has as its target T5, mFc-hNKG2D (recombinant mFc-tagged human NKG2D dimer) (human, UniProt P26718 73-216).
T5 construct: extracellular domain; Made in house; not shown: mouse Fc tag
T5 sequence (looked up): T2 sequence (looked up)
Nature of the experiment: SPR; after 4 wks 40C in HST pH 6.0.

Experiment [7] has as its target T6, Human CD16a V158 (FcγRIIIa V158) (human, UniProt P08637 17-208, biotinylated).
T6 construct: Bought recombinant receptor; also called hCD16aV; hFcγRIIIa V158
Nature of the experiment: SPR; after 4 wks 40C in HST pH 6.0.

The target in experiment [8] is T4, Human CLEC12A-His (recombinant, K244 WT). Nature of the experiment: SPR, two-state fit (ka1); after forced oxidation.
Experiment [9] has the same target. Nature of the experiment: SPR, two-state fit (ka1); after 4 wks 40C in HST pH 6.0.
Experiment [10] shares this target. Nature of the experiment: SPR, untreated CLEC12A, two-state fit (ka1).
For experiment [11] the target is unchanged. Nature of the experiment: SPR, untreated CLEC12A, two-state fit.
Experiment [12] addresses T7, Human CD16b (human, UniProt O75015 17-200, limits assumed, biotinylated).
T7 construct: Bought recombinant receptor; also called hFcγRIIIb
Nature of the experiment: SPR, steady state fit; average for AB0192.

Experiment [13] concerns the target T8, recombinant cynomolgus FcRn (cynomolgus monkey, UniProt Q8SPV9 24-297; Q8SPW0 21-119).
T8 construct: also called cFcRn; cyno FcRn
Nature of the experiment: SPR 25C, pH 6.0, steady state; pH 6.0; fourth replicate.

The target in experiment [14] is T9, recombinant human CD16a F158 (human, UniProt P08637 17-208).
T9 construct: also called FcγRIIIa F158
T9 sequence (P08637 17-208 limits assumed): as the sequence (P08637 17-208 F176V limits assumed) above, with V160F counted along it
Nature of the experiment: SPR 25C, steady state, average.

Experiment [15] has as its target T10, recombinant human FcRn (human, UniProt P55899 24-297; P61769 21-119).
T10 construct: also called hFcRn
Nature of the experiment: SPR 25C, pH 6.0, steady state; pH 6.0; second replicate.

Experiment [16] deals with T9, recombinant human CD16a F158. Nature of the experiment: SPR 25C, steady state.
In experiment [17] the target is T11, recombinant human CLEC12A-His (human, UniProt Q5QGZ9 65-265).
T11 construct: also called hCLEC12A-His; hCLEC12A
T11 sequence: T1 sequence
Nature of the experiment: SPR 37C.

Experiment [18] addresses T8, recombinant cynomolgus FcRn. Nature of the experiment: SPR 25C, pH 6.0, steady state, average; pH 6.0; average of four replicates.
For experiment [19], the target named is T12, recombinant human CD16b (human, UniProt O75015 17-200, limits assumed, biotinylated).
T12 construct: also called FcγRIIIb
T12 sequence (O75015 17-200 limits assumed): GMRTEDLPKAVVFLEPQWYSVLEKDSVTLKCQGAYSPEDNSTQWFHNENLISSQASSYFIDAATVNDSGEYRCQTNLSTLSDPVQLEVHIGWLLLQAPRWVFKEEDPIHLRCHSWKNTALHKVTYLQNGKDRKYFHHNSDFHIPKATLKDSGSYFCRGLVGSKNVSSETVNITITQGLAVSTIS
Nature of the experiment: SPR 25C, steady state, average.

T6 sequence (P08637 17-208 F176V limits assumed): as the sequence (P08637 17-208 F176V limits assumed) above
T8 sequence (Q8SPV9 24-297 limits assumed, chain 1 of 2): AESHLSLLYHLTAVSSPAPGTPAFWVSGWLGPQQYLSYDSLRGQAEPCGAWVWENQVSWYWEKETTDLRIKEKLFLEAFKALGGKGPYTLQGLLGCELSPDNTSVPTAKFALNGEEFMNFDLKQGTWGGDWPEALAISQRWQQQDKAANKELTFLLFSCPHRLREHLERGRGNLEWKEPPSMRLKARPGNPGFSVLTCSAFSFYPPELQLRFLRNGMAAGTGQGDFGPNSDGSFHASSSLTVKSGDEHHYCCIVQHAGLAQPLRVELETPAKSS
T8 sequence (Q8SPW0 21-119 limits assumed, chain 2 of 2): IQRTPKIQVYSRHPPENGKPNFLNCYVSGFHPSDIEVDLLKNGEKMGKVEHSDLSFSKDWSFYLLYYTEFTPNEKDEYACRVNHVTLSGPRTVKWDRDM
T7 sequence (O75015 17-200 limits assumed): as the sequence (O75015 17-200 limits assumed) above
T10 sequence (P55899 24-297 limits assumed, chain 1 of 2): as the sequence (Q8SPV9 24-297 limits assumed, chain 1 of 2) above, with D39N, Q44E, S99G, G189S, N190S, M217L, T269S counted along it
T10 sequence (P61769 21-119 limits assumed, chain 2 of 2): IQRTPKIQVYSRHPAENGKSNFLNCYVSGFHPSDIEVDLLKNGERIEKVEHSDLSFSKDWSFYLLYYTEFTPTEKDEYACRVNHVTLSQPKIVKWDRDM

B1: F3'-1602 TriNKET (bispecific antibody, human IgG1, kappa)
chain: QLQLQESGPGLVKPSETLSLTCTVSGFSLTNYGLHWIRQPPGKCLEWIGVIWSGGKTDYNPSLKSRVTISKDTSKNQFSLKLSSVQAADTAVYYCAKYDYDDSLDYWGQGTLVTVSSGGGGSGGGGSGGGGSGGGGSDIQMTQSPSSLSASVGDRVTITCHASQNINFWLSWYQQKPGKAPKLLIYEASNLHTGVPSRFSGSGSGTRFTLTISSLQPEDIATYYCQQSHSYPLTFGCGTKLEIKGSDKTHTCPPCPAPELLGGPSVFLFPPKPKDTLMISRTPEVTCVVVDVSHEDPEVKFNWYVDGVEVHNAKTKPREEQYNSTYRVVSVLTVLHQDWLNGKEYKCKVSNKALPAPIEKTISKAKGQPREPRVYTLPPCRDELTKNQVSLTCLVKGFYPSDIAVEWESNGQPENNYKTTPPVLVSDGSFTLYSKLTVDKSRWQQGNVFSCSVMHEALHNHYTQKSLSLSPG
heavy: EVQLVESGGGLVKPGGSLRLSCAASGFTFSSYSMNWVRQAPGKGLEWVSSISSSSSYIYYADSVKGRFTISRDNAKNSLYLQMNSLRAEDTAVYYCARGAPIGAAAGWFDPWGQGTLVTVSSASTKGPSVFPLAPSSKSTSGGTAALGCLVKDYFPEPVTVSWNSGALTSGVHTFPAVLQSSGLYSLSSVVTVPSSSLGTQTYICNVNHKPSNTKVDKKVEPKSCDKTHTCPPCPAPELLGGPSVFLFPPKPKDTLMISRTPEVTCVVVDVSHEDPEVKFNWYVDGVEVHNAKTKPREEQYNSTYRVVSVLTVLHQDWLNGKEYKCKVSNKALPAPIEKTISKAKGQPREPQVCTLPPSRDELTENQVSLTCLVKGFYPSDIAVEWESNGQPENNYKTTPPVLDSDGSFFLYSWLTVDKSRWQQGNVFSCSVMHEALHNHYTQKSLSLSPG
light: DIQMTQSPSSVSASVGDRVTITCRASQGISSWLAWYQQKPGKAPKLLIYAASSLQSGVPSRFSGSGSGTDFTLTISSLQPEDFATYYCQQGVSFPRTFGGGTKVEIKRTVAAPSVFIFPPSDEQLKSGTASVVCLLNNFYPREAKVQWKVDNALQSGNSQESVTEQDSKDSTYSLSSTLTLSKADYEKHKVYACEVTHQGLSSPVTKSFNRGEC
notes: Trispecific F3' format: CLEC12A scFv-Fc paired with NKG2D Fab-Fc; Stressed and control samples of the stability studies are the same molecule; also called AB0237
B1: the Kd is 1.07 nM in [1], 1.1 nM in experiment [2], 671 nM in [3] and 212 nM in [4]. Moreover, the koff in experiment [1] worked out at 0.000853 s⁻¹; in experiment [2], 0.00084 s⁻¹; in [3] it was 0.139 s⁻¹; in [4], 0.024 s⁻¹. Besides, the kon in experiment [1] is 799000 M⁻¹ s⁻¹; in experiment [2] it was 801000 M⁻¹ s⁻¹; in experiment [3], 207000 M⁻¹ s⁻¹; in experiment [4], 113000 M⁻¹ s⁻¹.

B2: AB0089 TriNKET (bispecific antibody, human IgG1, kappa)
chain: B1 chain with S53V, K56A, K71V, Y98G, D101G, S103T, R207D, I220F
heavy: B1 heavy
light: B1 light
notes: F3' format heterodimer of three chains; human IgG1 Fc with EW-RVT and Y349C/S354C mutations; also called AB0089 Lot AB0089-002; CLEC12A TriNKET AB0089
On to B2, for which the values for the koff in experiment [5], in experiment [6] and in experiment [7] were 0.0427 s⁻¹, 0.132 s⁻¹ and 0.0284 s⁻¹, respectively. Further, the Kd in experiment [6] stood at 796 nM; in [7], 359 nM; in [11] it was 0.6 nM. For the same molecule, the kon in experiment [6] was 166000 M⁻¹ s⁻¹; in [7], 79300 M⁻¹ s⁻¹; in experiment [8], 9.93e+06 M⁻¹ s⁻¹; in experiment [9], 7.91e+06 M⁻¹ s⁻¹; in experiment [10], 1.63e+07 M⁻¹ s⁻¹.

B3: AB0192 TriNKET (other)
chain: EVQLVESGGGVVQPGGSLRLSCAASGFTFNAFGMHWVRQAPGKCLEWVAFISSGSTSIYYANTVKGRFTISRDNSKNTLYLQMNSLRAEDTAVYYCARDGYPTGGAMDYWGQGTSVTVSSGGGGSGGGGSGGGGSGGGGSDIQMTQSPSSLSASVGDRVTITCKASQDIYNYLSWFQQKPGKAPKPLIYRANILVSGVPSRFSGSGSGQDYTFTISSLQPEDIATYYCLQFDAFPFTFGCGTKLEIKGSDKTHTCPPCPAPELLGGPSVFLFPPKPKDTLMISRTPEVTCVVVDVSHEDPEVKFNWYVDGVEVHNAKTKPREEQYNSTYRVVSVLTVLHQDWLNGKEYKCKVSNKALPAPIEKTISKAKGQPREPRVYTLPPCRDELTKNQVSLTCLVKGFYPSDIAVEWESNGQPENNYKTTPPVLVSDGSFTLYSKLTVDKSRWQQGNVFSCSVMHEALHNHYTQKSLSLSPG
heavy: B1 heavy
light: B1 light
notes: the condition stands under assay; also called AB0192 Lot AB0192-005
In [12], B3 came in with a Kd of 6000 nM.

B4: F3'-1602 TriNKET (other)
chain: B1 chain
heavy: B1 heavy
light: B1 light
notes: CLEC12A scFv-Fc, NKG2D A49MI Fab-Fc, human IgG1 Fc; also called AB0237
Take B4: the Kd was 1500 nM in [13]; 1110 nM in [14]; 1100 nM in [15]; 1130 nM and 1120 nM and 1090 nM in experiment [16]; 1.2 nM and 1.19 nM in experiment [17]; 1300 nM in experiment [18]. The Kd in [19] was found to be 7500 nM. Besides, the koff in [17] is 0.000952 s⁻¹ and 0.000913 s⁻¹. The kon in experiment [17] was 791000 M⁻¹ s⁻¹ and 768000 M⁻¹ s⁻¹.

One may read the Kd as the concentration at which binding is half-saturated. What is called koff is the rate constant with which the complex falls apart. For orientation: kon means the rate constant with which the complex forms.
